Data published in publication PMC4981318.

Legend:
[1] = target: gp41 17–163 (construct H; MPER truncated by 9 C-terminal residues) (HIV-1 (HXB2 isolate)); assay: AUC; sedimentation velocity, 50,000 rpm, 20°C; 20 mM sodium phosphate, pH 7, 150 mM NaCl, 10 mM DPC (excess of micelles); 10–20 μM protein
[2] = target: gp41 17–194 (Env 528 to 705; FPPR to TM, IL replaced by the L6 spacer) (HIV-1 (HXB2 isolate)); assay: AUC; sedimentation velocity, 20°C; 20 mM sodium phosphate, pH 7, without NaCl, DPC; 1–2 μM protein left soluble

gp41 17–163 (construct H; MPER truncated by 9 C-terminal residues) (domain or fragment)
stoichiometry N [1]: 3

gp41 17–194 (Env 528 to 705; FPPR to TM, IL replaced by the L6 spacer) (domain or fragment)
stoichiometry N [2]: 3
